Reference: patent US20110165145A1, “IGF-II/IGF-IIE BINDING PROTEINS” (priority 2008, published 2011)

Molecular target: insulin-like growth factor I (IGF-I) (UniProt P05019)
Assay: cell-based or functional assay

insulin-like growth factor I (IGF-I), sequence (P05019 49-118 limits assumed): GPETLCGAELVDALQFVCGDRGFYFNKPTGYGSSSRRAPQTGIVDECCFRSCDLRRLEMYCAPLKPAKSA

“Neu-IGF-II antibody (anti-IGF-II antibody, R&D system Cat# MAB292)” was tested, and the IGF-I stimulated Ba/F3 cell proliferation was 30 % inhibition.
